Source: US20040102388

Assays:
[1] = biological target: wild type FVII (human Factor VII) (UniProt P08709)
FVII-PRPSRKRR = FVII-PRPSRKRR (UniProt P08709)
FVII-RKRRKR = FVII-RKRRKR (UniProt P08709)
FVII-RKR = FVII-RKR (UniProt P08709)

Factor Xa
FXa activation: conversion of single-chain zymogen to two-chain material (reducing gel) [1]: modified FVII, like wild type FVII, is autoactivated by (A) soluble Tissue factor (sTF) and (B) Factor Xa | FXa activation: conversion of single-chain zymogen to two-chain material (reducing gel) (FVII-PRPSRKRR): the single-chain zymogen protein in all but FVII-INS was nearly completely converted to two-chain material | FXa concentration giving complete cleavage of zymogen (FVII-PRPSRKRR): Addition of 1 µM FXa (i.e 50 fold higher than for the other FVIIa proteins) resulted in complete cleavage of zymogen FVII-INS | FXa activation: conversion of single-chain zymogen to two-chain material (reducing gel) (FVII-RKRRKR): the single-chain zymogen protein in all but FVII-INS was nearly completely converted to two-chain material | FXa activation: conversion of single-chain zymogen to two-chain material (reducing gel) (FVII-RKR): the single-chain zymogen protein in all but FVII-INS was nearly completely converted to two-chain material

B1: wild type FVII (human Factor VII) (protein)
chain: ANAFLEELRPGSLERECKEEQCSFEEAREIFKDAERTKLFWISYSDGDQCASSPCQNGGSCKDQLQSYICFCLPAFEGRNCETHKDDQLICVNENGGCEQYCSDHTGTKRSCRCHEGYSLLADGVSCTPTVEYPCGKIPILEKRNASKPQGRIVGGKVCPKGECPWQVLLLVNGAQLCGGTLINTIWVVSAAHCFDKIKNWRNLIAVLGEHDLSEHDGDEQSRRVAQVIIPSTYVPGTTNHDIALLRLHQPVVLTDHVVPLCLPERTFSERTLAFVRFSLVSGWGQLLDRGATALELMVLNVPRLMTQDCLQQSRKVGDSPNITEYMFCAGYSDGSKDSCKGDSGGPHATHYRGTWYLTGIVSWGQGCATVGHFGVYTRVSQYIEWLQKLMRSEPRPGVLLRAPFP
autoactivation: cleavage of single-chain zymogen to two-chain FVIIa (reducing gel) (soluble Tissue factor): single-chain protein (zymogen) in the FVII or the FVIIa preparations was cleaved to yield a two-chain material (FVIIa)

B2: FVII-RKR (protein)
chain: ANAFLEELRPGSLERECKEEQCSFEEAREIFKDAERTKLFWISYSDGDQCASSPCQNGGSCKDQLQSYICFCLPAFEGRNCETHKDDQLICVNENGGCEQYCSDHTGTKRSCRCHEGYSLLADGVSCTPTVEYPCGKIPILEKRNASKPQGRRKRIVGGKVCPKGECPWQVLLLVNGAQLCGGTLINTIWVVSAAHCFDKIKNWRNLIAVLGEHDLSEHDGDEQSRRVAQVIIPSTYVPGTTNHDIALLRLHQPVVLTDHVVPLCLPERTFSERTLAFVRFSLVSGWGQLLDRGATALELMVLNVPRLMTQDCLQQSRKVGDSPNITEYMFCAGYSDGSKDSCKGDSGGPHATHYRGTWYLTGIVSWGQGCATVGHFGVYTRVSQYIEWLQKLMRSEPRPGVLLRAPFP
autoactivation: cleavage of single-chain zymogen to two-chain FVIIa (reducing gel) (soluble Tissue factor): all modified FVIIa contain single-chain material that can be cleaved

B3: FVII-RKRRKR (protein)
chain: ANAFLEELRPGSLERECKEEQCSFEEAREIFKDAERTKLFWISYSDGDQCASSPCQNGGSCKDQLQSYICFCLPAFEGRNCETHKDDQLICVNENGGCEQYCSDHTGTKRSCRCHEGYSLLADGVSCTPTVEYPCGKIPILEKRNASKPQGRRKRRKRRKRIVGGKVCPKGECPWQVLLLVNGAQLCGGTLINTIWVVSAAHCFDKIKNWRNLIAVLGEHDLSEHDGDEQSRRVAQVIIPSTYVPGTTNHDIALLRLHQPVVLTDHVVPLCLPERTFSERTLAFVRFSLVSGWGQLLDRGATALELMVLNVPRLMTQDCLQQSRKVGDSPNITEYMFCAGYSDGSKDSCKGDSGGPHATHYRGTWYLTGIVSWGQGCATVGHFGVYTRVSQYIEWLQKLMRSEPRPGVLLRAPFP
autoactivation: cleavage of single-chain zymogen to two-chain FVIIa (reducing gel) (soluble Tissue factor): all modified FVIIa contain single-chain material that can be cleaved

B4: FVII-PRPSRKRR (protein)
chain: ANAFLEELRPGSLERECKEEQCSFEEAREIFKDAERTKLFWISYSDGDQCASSPCQNGGSCKDQLQSYICFCLPAFEGRNCETHKDDQLICVNENGGCEQYCSDHTGTKRSCRCHEGYSLLADGVSCTPTVEYPCGKIPILEKRNASKPQGRPRPSRKRRIVGGKVCPKGECPWQVLLLVNGAQLCGGTLINTIWVVSAAHCFDKIKNWRNLIAVLGEHDLSEHDGDEQSRRVAQVIIPSTYVPGTTNHDIALLRLHQPVVLTDHVVPLCLPERTFSERTLAFVRFSLVSGWGQLLDRGATALELMVLNVPRLMTQDCLQQSRKVGDSPNITEYMFCAGYSDGSKDSCKGDSGGPHATHYRGTWYLTGIVSWGQGCATVGHFGVYTRVSQYIEWLQKLMRSEPRPGVLLRAPFP
autoactivation: cleavage of single-chain zymogen to two-chain FVIIa (reducing gel) (soluble Tissue factor): all modified FVIIa contain single-chain material that can be cleaved
